The data set concerns the molecule itself. The experiment in a line: SEC; analytical gel filtration of the purified protein on its own; S200/26-60 column, 20 mM HEPES-Na pH 7.5, 250 mM NaCl, 10 mM KCl, 10 mM MgCl2; fractions analysed by SDS-PAGE. A general note: Size exclusion chromatography separates by hydrodynamic size, large species first.

B1: BacF carrying a hexa-histidine tag (6-His-BacF) (natural protein, Bacillus subtilis, UniProt P39133 1-235, looked up)
chain: METTKLGNLKLYGAGHAAGGAYHNVSIKGEGIVGEGLSAVGCRIYGTGLFLGKAETERLRVLGESECKGDLTAGKINIYGTMKVSGSLQFDRFNLKGQTEIGGNMTGESCDVKGKLSVIGDCETEMFHVTGCVDVSGLLNSGEIKLGLSHDISHVQEIGGTTITVKRRASFFSRKKGKLIADVIEGDRVYLENTEAAVVRGKEVIIGPGCSIGTIEYEYKCECDPHSQIKEKTKL
notes: Bactofilin BacF, product of yhbF, Bacillus subtilis; full-length yhbF cloned into pET16b or pET24d; also called YhbF; his6-yhbF; source: E. coli BL21 (DE3); also coexpressed with untagged BacE, in cell extract
With B1, the binding result is recorded as “binds”.

B2: BacE carrying a hexa-histidine tag (his6-yhbE) (natural protein, Bacillus subtilis, UniProt P39132 1-237, looked up)
chain: MDVVEKLVINGSGSSKGGTFQSVEINGSGTVAGDVECDTFSFNGNGKADGSVKAKAVTISGSGKIHGDVEAESIRMNGTGFIQGEVSAKQLKIAGSSTFGGTVKADGIDISGKAVMEADCETETFQSEGKCKISGLLNADQVIIKLSAGESYAREIGCRHLQVTCRKGMLTLLRLMPQPVLTAELIEGDVIELTNTKAKTVRGNKVIIGPDCQIETVEYSGDYTCDPSASVETSTKL
notes: Bactofilin BacE, product of yhbE, Bacillus subtilis; full-length yhbE cloned into pET16b or pET24d; source: E. coli BL21 (DE3); also coexpressed with untagged BacF, in cell extract
On to B2, for which the binding result is recorded as “binds”.

Source of the values: paper PMC4627819, “Bacillus subtilis Bactofilins Are Essential for Flagellar Hook- and Filament Assembly and Dynamically Localize into Structures of Less than 100 nm Diameter underneath the Cell Membrane” (PLoS ONE, 2015).
